B1: Autophagy-related protein 32 (Saccharomyces cerevisiae), P40458 (parent)
chain: MVLEYQQREGKGSSSKSMPPDSSSTTIHTCSEAQTGEDKGLLDPHLSVLELLSKTGHSPSPMGQNLVTSIDISGNHNVNDSISGSWQAIQPLDLGASFIPERCSSQTTNGSILSSSDTSEEEQELLQAPAADIINIIKQGQEGANVVSPSHPFKQLQKIISLPLPGKEKTPFNEQDDDGDEDEAFEEDSVTITKSLTSSTNSFVMPKLSLTQKNPVFRLLILGRTGSSFYQSIPKEYQSLFELPKYHDSATFPQYTGIVIIFQELREMVSLLNRIVQYSQGKPVIPICQPGQVIQVKNVLKSFLRNKLVKLLFPPVVVTNKRDLKKMFQRLQDLSLEYGEDVNEEDNDDEAIHTKSRSYCRNKKAENSKKKSPKSNKKPKRKKQKFFTSWFTWGISITIGISFGCCVTYFVTAAYEHQTVKSLSLRPSILASLLSLDSSSDTINTPATASPSSTEQFLWFDKGTLQINFHSDGFIMKSLTIIKETWGKMNTFVLHALSKPLKFLENLNKSSEFSIDESNRILALGYILL
partner: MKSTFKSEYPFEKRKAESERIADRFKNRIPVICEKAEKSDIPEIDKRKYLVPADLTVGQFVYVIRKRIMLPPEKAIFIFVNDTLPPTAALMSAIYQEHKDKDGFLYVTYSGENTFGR
B2: Autophagy-related protein 32 (Saccharomyces cerevisiae), P40458 (parent)
chain: B1 chain
partner: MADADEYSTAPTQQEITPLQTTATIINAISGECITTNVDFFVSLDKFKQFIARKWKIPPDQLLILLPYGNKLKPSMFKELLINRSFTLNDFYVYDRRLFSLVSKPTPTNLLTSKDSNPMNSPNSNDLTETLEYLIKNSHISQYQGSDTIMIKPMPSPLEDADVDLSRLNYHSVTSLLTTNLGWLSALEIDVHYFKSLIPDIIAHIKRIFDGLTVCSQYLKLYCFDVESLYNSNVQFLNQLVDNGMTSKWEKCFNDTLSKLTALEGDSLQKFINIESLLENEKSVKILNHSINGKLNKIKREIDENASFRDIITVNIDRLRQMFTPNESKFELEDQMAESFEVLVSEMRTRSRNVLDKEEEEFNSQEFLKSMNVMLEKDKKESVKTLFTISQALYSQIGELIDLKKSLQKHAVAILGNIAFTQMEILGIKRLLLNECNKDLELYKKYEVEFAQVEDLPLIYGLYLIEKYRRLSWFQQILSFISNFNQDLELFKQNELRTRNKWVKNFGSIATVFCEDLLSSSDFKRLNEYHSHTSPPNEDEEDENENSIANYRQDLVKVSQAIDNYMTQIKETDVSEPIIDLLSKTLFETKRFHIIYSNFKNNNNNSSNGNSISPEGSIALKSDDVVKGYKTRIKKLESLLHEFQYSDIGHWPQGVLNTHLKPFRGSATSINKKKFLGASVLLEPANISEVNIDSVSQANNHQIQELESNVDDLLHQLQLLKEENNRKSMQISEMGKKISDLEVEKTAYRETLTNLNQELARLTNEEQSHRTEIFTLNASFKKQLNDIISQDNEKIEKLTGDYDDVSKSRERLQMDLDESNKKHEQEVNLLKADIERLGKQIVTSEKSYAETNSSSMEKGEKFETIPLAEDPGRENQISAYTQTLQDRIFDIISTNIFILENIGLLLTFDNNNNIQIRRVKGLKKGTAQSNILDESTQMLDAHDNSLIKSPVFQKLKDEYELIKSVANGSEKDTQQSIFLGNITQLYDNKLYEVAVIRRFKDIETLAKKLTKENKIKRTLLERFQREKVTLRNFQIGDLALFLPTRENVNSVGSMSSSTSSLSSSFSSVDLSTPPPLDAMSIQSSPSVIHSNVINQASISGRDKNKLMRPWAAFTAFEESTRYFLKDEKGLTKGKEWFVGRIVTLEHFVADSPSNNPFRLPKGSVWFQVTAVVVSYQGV
B3: Autophagy-related protein 36 (Saccharomyces cerevisiae), P46983 (parent)
chain: MASVNNYQVDCGSRSARIQPRINNGIHDEESLFEVLELSEEEFELDFHRLKSFNDVRVINNPDLSPECTNTAISRDETLESASSAFEVPSDEIAILSISSDSNKNSPPSEQPAPALRNIRSSSNSDRIDEWCLGSHLFNELHQNVPQSSDGVNHGFPVYSFKERELYTSAKLKKLTNAQRIAVQKLSRDLYPILRTCYREKTRRQLLTYHHERIFDDIPSFFPQRDFIFNYYSMPLEFDRLSDVDIDSSSRSRFTDESTGETLNRSPSAASSSLENTSWFGWTLLSRFLDREW
partner: B2 partner
B4: Autophagy-related protein 36 (Saccharomyces cerevisiae), P46983 (parent)
chain: B3 chain
partner: B1 partner

Variants of: B1
Settings: with atg8_yeast ATG8, P38182

Variant | effect of a mutation on the interaction
S81A;S83A;S85A | disrupting interaction

Variants of: B2
Settings: with atg11_yeast ATG11, Q12527

Variant | effect of a mutation on the interaction
S114A;S119A | disrupting interaction

Variants of: B3
Settings: with atg11_yeast ATG11, Q12527

Variant | effect of a mutation on the interaction
S97A | disrupting interaction

Variants of: B4
Settings: with atg8_yeast ATG8, P38182

Variant | effect of a mutation on the interaction
S31A | disrupting interaction

Variants of: B4
Settings: with atg8_yeast ATG8, P38182
Remark: another data set of the same source

Variant | effect of a mutation on the interaction
F33A;L36A | disrupting interaction

— IntAct's records for PubMed 23559066
